Results: the nanobody polyreactivity screen of Harvey et al. (2022)

test: yeast display, Sf9 membrane polyspecificity reagent, FACS + sequencing; frameworks hold sequencing errors
Summary of the method: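 Galactose-induced (36–48 hours) yeast carrying a synthetic nanobody display library were exposed to 10% biotinylated, detergent-solubilized Sf9 membrane reagent at 4 °C for 1 hour. FACS followed streptavidin microbead enrichment, using low and high (top ~1%) gates for expression (anti-HA) and reagent binding (streptavidin). Colony PCR, MiSeq 2 × 250 sequencing and CDR-length filtering followed. Labels for polyreactivity reflect the gate of origin.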

Row | Sequence | polyreactivity (PSR sort gate)
1 | QVQLVESGGGLVQAGGSLRLICAASGSTFFDYAMGGYRQAPGKEREFVADIYSNGGSTYYADSVKGRFTFSRDNAKNSVYLQMNSLKPEDTAGYYCAAVLRPRQGRRYDYWGQGTQVTVSS | low polyreactivity
2 | QVQLVESGGGLVQAGGSLRLICAASGSTFFSYAMGWYRPAPGKERQLVAAITRSGGSTYYADSVKGRFTISRDNAKNTVFLQMNSLKPEDTAVYYCNADLGIGYDYWGQGTHVTVSS | high polyreactivity
3 | QVQLVESGGGLVQAGGSLRLICAASGSTFGPNGMGWYRQAPGKERELVARIDRIGGGTYYADSVKGRFTISRDNAKNTVYLQMNSLKPEDTAVYYCAADGPSPFIQGYAKGDYWGQGTQVTVSS | low polyreactivity
4 | QVQLVESGGGLVQAGGSLRLICAASGSTFGPYDMGWYRQAPGKERELVADITSGGSTYYADSVKGRFTISRDNAKNTVYLQMNSLKPEDTAVYYCAADRVWPYYQYDYWGQGTQVTVSS | low polyreactivity
5 | QVQLVESGGGLVQAGGSLRLICAASGSTFGRNAMGWYRQAPGKERELVAAITASGGTTYYADSVKGRFTISRDNAKNTVYLQMNSLKPEDTAVYYFARAGHFSFKYDYWGQGTQVTVSS | low polyreactivity
6 | QVQLVESGGGLVQAGGSLRLICAASGSTFGWYAMGWYRQAPGQERELVAAISWGGGSTYYADSVKGRFTISRDNAKNTVYLQMNSLKPEVTAVYYCAKVPLTYSRSGYEYDYWGQGTQVTVSS | low polyreactivity
7 | QVQLVESGGGLVQAGGSLRLICAASGSTFHTYAMGWYRQAPGKERELVATITWDGGRTYYADSVKGRFTISRDNAKNTVYLQMNSLKPEDPAVYYCAADYWSIEMDYWGQGTQVTVSS | low polyreactivity
8 | QVQLVESGGGLVQAGGSLRLICAASGSTFKRYAMGWYRQAPGKERELVAAISLSSGSTYYADSVKGRFTISRDNAKNTVYLQMNSLKPEDTAVYYCNAAKTYPDVYEYDYWGQGTQVTVSS | high polyreactivity
9 | QVQLVESGGGLVQAGGSLRLICAASGSTFKYNAMGWYRQAPGKERELVAAISSGGSTNYADSVKGRFTISRDNAKNTVYLQMHSLKPEDTAVYYCNAAYNYVTPWYFYWGQGTQVTVSS | high polyreactivity
10 | QVQLVESGGGLVQAGGSLRLICAASGSTFQDNAMGWYRQAPGKERELVASISSVDSTNYADSVKGRFTISRDNAQNTVYLQMNSLKPEDTAVYYCNAAHPYRRVGSFTYKYDYWGQGTQVTVSS | low polyreactivity
11 | QVQLVESGGGLVQAGGSLRLICAASGSTFRHYAMGWYRQAPGKERELVAAIRRSGGTTYYADSVKGRFTISRDNAKNTVYLHMNSLKPEDTAVYYCAARLTVRKLVRFDYWGQGTQVTVSS | low polyreactivity
12 | QVQLVESGGGLVQAGGSLRLICAASGSTFSAYVMGWYRQAPGKERKLVAAITRSGVSTYYADSVKGRFTISRDNAKNTVYLQMNSLKPEDTAVYYCARRAKGAYWNEYNYWGQGTQVTVSS | high polyreactivity
13 | QVQLVESGGGLVQAGGSLRLICAASGSTFTRYAMGWYRQAPGKERELVAAINSSGGRTYYADSVKGRFTISRDNAKNTVYLQMNSLKPEDTAVYYFAATRGRYREDEDYWGQGTQVTVSS | high polyreactivity
14 | QVQLVESGGGLVQAGGSLRLICAASGSTFTRYAMGWYRQAPRKERELVAAISRGGSTNYADSVKGRFTISRDNAKNTVYLQMNSLKPEDTAVYYCAAARYRYYLGFGYDYWGQGTQVTVSS | high polyreactivity
15 | QVQLVESGGGLVQAGGSLRLICAASGSTFYSNAMGWYRQAPGKERELVAAINYSGGGTYYADSVKGRFTISRDNAKNTVYLQMNSLKPEDTAVYYCAADGSYVHWEYGYWGQGTQVTVSS | low polyreactivity
16 | QVQLVESGGGLVQAGGSLRLICAASGSTFYSYAMGWYRQAPGKERELVAVISWSGGSTYYADSVKGRFTISRDNAKNTVYLQMNSLKPEDTAVYYCAAESYYSDDWYYAYYYWGQGTQVTVSS | high polyreactivity
17 | QVQLVESGGGLVQAGGSLRLICAASGSTIGGYVMGWYRQAPGKERELVAAISRSGASTYYADSVKGRFTISRDNAKNTVYLQMNSLKQEDTAVYYCAAYQARGMDYWGQGTQVTVSS | high polyreactivity
18 | QVQLVESGGGLVQAGGSLRLICAASGSTIGSYVMGWYRTAPGKERELVAAITSGARTNYADSVKGRFTISRDNAKNTVYLQMNSLKPEDTAVYYCAKYYRPAYVYRIAGYYWGQGTQVTVSS | high polyreactivity
19 | QVQLVESGGGLVQAGGSLRLICAASGSTILVYAMGCYRQAPWKEMELVAAITQIDGSTYYADSVKGRFTISRDNAKNTVYLQMNSLKPEDTAVFYCAARFFWTYEYDYWGQATQVTVSS | low polyreactivity
20 | QVQLVESGGGLVQAGGSLRLICAASGSTLDKYAMGWDRPAPGKERELVAAISSSGGSTYYADSVKGRFTISRDNAKNTVYLQMNSLKPEDTAVYYCAARFFRGRYLDDYWGQGTQVTVSS | high polyreactivity
21 | QVQLVESGGGLVQAGGSLRLICAASGSTLYRYAMGWYRPAPGKERELVAAISSAGSTHYADSVKGRFTISRDNAKNTVYLQMNSLKPEDTAVYYCAAKRYLKYGYWGQGTQVTVSS | high polyreactivity
22 | QVQLVESGGGLVQAGGSLRLICAASGSTYHYAMGWYRQAPGKERELVASITWRGDTTYYADSVKGRFTISRDNAKYNVYLQMNSLKPEDTAVYYCAAYHFSFGWIRVDYWGQGTQVTVSS | high polyreactivity

Row | Sequence | polyreactivity (PSR sort gate)
23 | QVQLVESGGGLVQAGGSLRLICAASGSYAMGWYRQAPGKERELVASIDGPGGSTYYADSVKGRFTISRDNAKNTVYLQMNSLKPEDTAVYYCEDWAPGLYDYWGQGTQVTVSS | low polyreactivity
24 | QVQLVESGGGLVQAGGSLRLICAASGYIFYAYALGWYRQAPGKERELVAAITDNGVSTFYADSVKGRFTISRDNAKNTVYLHMKSLKPEETAVYYCATSSTHSRGDEYWGQGTQVTVSS | low polyreactivity
25 | QVQLVESGGGLVQAGGSLRLICAASRFYTMGWYRQATVKERELVAAISWSGGDTYYADSVKGRFTISRDNAKNTVYLQMNSLKPEDTAVYYCAKKTIGSYVHEPFYYWGQGTQVTVSS | low polyreactivity
26 | QVQLVESGGGLVQAGGSLRLICAASRSIFEINAMGWYSQAPGKERELVADNRRGDSTNYADSVNGRFTISRDNAKNTVYLQMNSLKPEVTAVYYCAARWRRSIYGVYPQRPYDYWGQGTQVTVSS | high polyreactivity
27 | QVQLVESGGGLVQAGGSLRLICAASVTTFPYYAMGWYRQAPGKERELVAAITSSGGSTYYADSVKGRFTISRDNAKNTVYLQMNSLIPEDTAVYYCAKGYGPYRQMNYWGQGTQVTVSS | low polyreactivity
28 | QVQLVESGGGLVQAGGSLRLICAATGITFITYVMGWYSQAPGKERELVAAISLRGGRTSYADSVKGRFTISRDNAKNTVYLQMNSLKPEDTAVYYCAARGGAYQNAYEYDYWGPGTQVTVSS | high polyreactivity
29 | QVQLVESGGGLVQAGGSLRLICAAYGGIFISYAMGWYRQAPWKERELVAAINYSGGSTNYADSVKGRFTLSRDNAKNTVYLQMNSLKPEDTAVYYCAARSTARYGYWGQGTQVTVSS | low polyreactivity
30 | QVQLVESGGGLVQAGGSLRLICADSGFILPRNAMGWYRQAPGKERELVAAIRSSGGTTYYADSVKGRFTISRDIAKNTVYLQMNSLKPEDTAVYYCAAVTTSKFNYWGQGTQVTVSS | low polyreactivity
31 | QVQLVESGGGLVQAGGSLRLICADYGITFRVNAMGWYRQAPGKERELVASISRSGGSTYYADSVKGRFTISRDNAKNTVYLQMNSLKPEDTAVYYCAAAQKVLFYGRWFDYWGQCTQVTVSS | low polyreactivity
32 | QVQLVESGGGLVQAGGSLRLICAPSGRIFEGYAMGWYRPATRKERELVAAISRGGGSTYYADSVKGRFTISRDNAKNTVYLQMNSLIPEDTAVYYCAKVPLTYSRSGYEYDYWGQGTQVSVSS | low polyreactivity
33 | QVQLVESGGGLVQAGGSLRLICAPSGRITLRYAIGWYRQAPRKERDFVAAITVSGGSTYYADSVKGRFTISRDNAKNTVYLMMNRLKPEDTAVYYCAVRQKTQYGSKHDYWGQGTQVTVSS | high polyreactivity
34 | QVQLVESGGGLVQAGGSLRLICAPSGSIFTYYAMGRYRQAPGKEKELVAAISQSGGTTYYADSVKGRFTISRDNAKNTVYLQMNSLKPEDTAVSYCAARAPSSFDTQYYYWGQGTQVTVSS | low polyreactivity
35 | QVQLVESGGGLVQAGGSLRLICAPSGSTNRYYAIGWSRQAPRKEMELVAPISWRGGSTYYADSVKGRFRISRDNANNTVYLEMNSLKPEDTAVYYCNAAYSYAVRDPIDYGYWGQGTQVTVSS | high polyreactivity
36 | QVQLVESGGGLVQAGGSLRLICDASGIYYRNAMGWYRQAPGKEREMVAAISWSGGSTYYADSVKGRFTISRDNAKNTVYLQMNSLNPEDTAVYYCAAVGGRYPSNVLGYYYWGQGTQVTVSS | high polyreactivity
37 | QVQLVESGGGLVQAGGSLRLICDASGRIFQFYAMGWYRQAPGKERELVAVITRRGGSTHYADSVKGRFTISRDNAKNTVYLQMNSLNPEDTAVYYCAAEWQTQGYEYWGQGTQVTVSS | high polyreactivity
38 | QVQLVESGGGLVQAGGSLRLICDASGSIFRYYAMGWYRQAPGKERELVARISWRAGSTYADSVKGRFTISRDYAKNTVYLQINSQKPEDTAVYYCNADAHKDSWVGTSEYEYWGQGTQVTVSS | high polyreactivity
39 | QVQLVESGGGLVQAGGSLRLLCAASGFTFGFNAMGWYRQAPGKERELVAAISRGGSTNYADSVKGLFTISRDNAKNTVYLQMNSLKPEDTAVYYCAADVITYVFRFYYWGQGTQVTVSS | low polyreactivity
40 | QVQLVESGGGLVQAGGSLRLRCAASAGTFGIYSMGWYRQAPGKEREFVAAISGRGGTTYDADSVKGRFTISRDNAKYTVYLQMNSLKPVDTAVYYWATDSVNVGSNVGDKHDYWGQGTQVTVSS | low polyreactivity
41 | QVQLVESGGGLVQAGGSLRLRCAASGFIFCSYAMGWYRQAPGKERELVAAINTSGDSTYYADSVKGRFTISRDNAKNTVYLQINSLKPEDTAVYYCAAESSPDGYFLSDYWGQGTQVTVSS | low polyreactivity
42 | QVQLVESGGGLVQAGGSLRLRCAASGFIFGYYAMGWYRQAPGKERELVAAITTSGGSTYYADSVKARFTISRDNAKNTVYLQMNSLKPEDTAVYYCNKPGNYVWRRSWDFDYWGQGTQVTVSS | high polyreactivity
43 | QVQLVESGGGLVQAGGSLRLRCAASGFTFAPNAMGWYRQAPGKERELVAAITWSGGSTYYADSVKGRFTISRDNAKNTVYVQMNSLKPEDTAVYYCNAVSRSTVTGQHDFWGQGTQVTVSS | high polyreactivity
